Patent publication US20150344570A1 (published 2015)
Positions count from the first letter of the chain named.

T1: FcgRIIaR (human, UniProt P12318 34-217)
T1 construct: extracellular domain; also called FcγRIIa R; FcgRIIa type R; not shown: His tag attached to the C terminus
T1 sequence (looked up): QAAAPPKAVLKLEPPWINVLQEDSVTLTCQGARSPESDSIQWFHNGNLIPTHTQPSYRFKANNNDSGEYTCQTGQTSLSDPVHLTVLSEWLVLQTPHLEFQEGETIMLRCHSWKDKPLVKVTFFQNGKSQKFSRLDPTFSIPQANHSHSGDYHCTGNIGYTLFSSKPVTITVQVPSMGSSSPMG

T2: FcgRIIaH (human, UniProt P12318 34-217)
T2 construct: extracellular domain; also called FcγRIIa H; FcgRIIa type H; not shown: His tag attached to the C terminus
T2 sequence (looked up): T1 sequence (looked up) with R134H

T3: FcgRIIb (human, UniProt P31994 43-217)
T3 construct: extracellular domain; also called FcγRIIb; 2b; not shown: His tag attached to the C terminus
T3 sequence (looked up): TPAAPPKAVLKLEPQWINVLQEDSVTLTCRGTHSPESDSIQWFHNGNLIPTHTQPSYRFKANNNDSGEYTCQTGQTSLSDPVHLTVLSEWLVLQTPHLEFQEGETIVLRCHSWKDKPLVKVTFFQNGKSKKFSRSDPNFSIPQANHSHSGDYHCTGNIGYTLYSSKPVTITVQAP

B1: H240-Kn212/H240-Hl076/L73-k0 (antibody, human IgG1, kappa)
heavy 1: QDQLVQSGAEVKKPGASVKVSCKASGFNIKDTYIQWVRQAPGQGLEWMGRIDPLRKQTKYREKFEGRVTITADTSTNTAYMELSSLRSEDTAVYYCVRSGREFDYWGQGTLVTVSSASTKGPSVFPLAPSSKSTSGGTAALGCLVKDYFPEPVTVSWNSGALTSGVHTFPAVLQSSGLYSLSSVVTVPSSSLGTQTYICNVNHKPSNTKVDKKVEPKSCDKTHTCPPCPAPETQWGPMVFLFPPKPKDTLMISRTPEVTCVVVDVSDEEPEVKFNWYVDGVEVHNAKTKPREEQYNATYRVVSVLTVLHQDWLNGKEYKCKVSNKALPAPIEKTISKAKGQPREPQVCTLPPSRDELTKNQVSLWCLVKGFYPSDIAVEWESNGQPENNYKTTPPVLDSDGSFFLYSKLTVDKSRWQQGNVFSCSVMHEALHNHYTQKSLSLSP
heavy 2: QDQLVQSGAEVKKPGASVKVSCKASGFNIKDTYIQWVRQAPGQGLEWMGRIDPLRKQTKYREKFEGRVTITADTSTNTAYMELSSLRSEDTAVYYCVRSGREFDYWGQGTLVTVSSASTKGPSVFPLAPSSKSTSGGTAALGCLVKDYFPEPVTVSWNSGALTSGVHTFPAVLQSSGLYSLSSVVTVPSSSLGTQTYICNVNHKPSNTKVDKKVEPKSCDKTHTCPPCPAPELLGGPSVFLFPPKPKDTLMISRTPEVTCVVVDVSHEEPEVKFNWYVDGVEVHNAKTKPREEQYNSTYRVVSVLTVLHQDWLNGKEYKCKVSNDALPMPIEETISKAKGQPREPQVYTLPPSRCELTKNQVSLSCAVKGFYPSDIAVEWESNGQPENNYKTTPPVLDSDGSFFLVSKLTVDKSRWQQGNVFSCSVMHEALHNHYTQKSLSLSP
light: DIQMTQSPSSLSASVGDRVTITCRASQDIHKYIAWYQQKPGQAPRLLIQYTSTLQPGVPSRFSGSGSGTDYTFTISSLQPEDIATYYCLQYEQLRTFGGGTKVEIKRTVAAPSVFIFPPSDEQLKSGTASVVCLLNNFYPREAKVQWKVDNALQSGNSQESVTEQDSKDSTYSLSSTLTLSKADYEKHKVYACEVTHQGLSSPVTKSFNRGEC
notes: Anti-epiregulin heterodimerized IgG1, knobs-into-holes
B2: H240-Kn213/H240-Hl076/L73-k0 (antibody, human IgG1, kappa)
heavy 1: B1 heavy 1 with T233A
heavy 2: B1 heavy 2
light: B1 light
notes: as for B1
B3: H240-Kn214/H240-Hl076/L73-k0 (antibody, human IgG1, kappa)
heavy 1: B1 heavy 1 with T233G
heavy 2: B1 heavy 2
light: B1 light
notes: as for B1
B4: H240-Kn215/H240-Hl076/L73-k0 (antibody, human IgG1, kappa)
heavy 1: B1 heavy 1 with T233H
heavy 2: B1 heavy 2
light: B1 light
notes: as for B1
B5: H240-Kn216/H240-Hl068/L73-k0 (antibody, human IgG1, kappa)
heavy 1: B1 heavy 1 with T233V, Q234Y, E269D, A326D
heavy 2: B1 heavy 2 with M329K
light: B1 light
notes: as for B1
B6: H240-Kn217/H240-Hl068/L73-k0 (antibody, human IgG1, kappa)
heavy 1: B1 heavy 1 with T233D, Q234Y, E269D, A326D
heavy 2: B1 heavy 2 with M329K
light: B1 light
notes: as for B1
B7: H240-Kn218/H240-Hl068/L73-k0 (antibody, human IgG1, kappa)
heavy 1: B1 heavy 1 with T233Q, Q234Y, E269D, A326D
heavy 2: B1 heavy 2 with M329K
light: B1 light
notes: as for B1
B8: H240-Kn219/H240-Hl068/L73-k0 (antibody, human IgG1, kappa)
heavy 1: B1 heavy 1 with T233I, Q234Y, E269D, A326D
heavy 2: B1 heavy 2 with M329K
light: B1 light
notes: as for B1
B9: H240-Kn220/H240-Hl068/L73-k0 (antibody, human IgG1, kappa)
heavy 1: B1 heavy 1 with T233M, Q234Y, E269D, A326D
heavy 2: B1 heavy 2 with M329K
light: B1 light
notes: as for B1
B10: H240-Kn221/H240-Hl068/L73-k0 (antibody, human IgG1, kappa)
heavy 1: B1 heavy 1 with Q234Y, E269D, A326D
heavy 2: B1 heavy 2 with M329K
light: B1 light
notes: as for B1
B11: H240-Kn222/H240-Hl068/L73-k0 (antibody, human IgG1, kappa)
heavy 1: B1 heavy 1 with T233A, Q234Y, E269D, A326D
heavy 2: B1 heavy 2 with M329K
light: B1 light
notes: as for B1
B12: H240-Kn223/H240-Hl068/L73-k0 (antibody, human IgG1, kappa)
heavy 1: B1 heavy 1 with T233G, Q234Y, E269D, A326D
heavy 2: B1 heavy 2 with M329K
light: B1 light
notes: as for B1
B13: H240-Kn224/H240-Hl068/L73-k0 (antibody, human IgG1, kappa)
heavy 1: B1 heavy 1 with T233H, Q234Y, E269D, A326D
heavy 2: B1 heavy 2 with M329K
light: B1 light
notes: as for B1

Each binder was assayed against T1, FcgRIIaR (assay: SPR (Biacore); KD of H240-Kn033/H240-Hl033/L73-k0 divided by KD of this variant).
Protocol: (§1) H240-Kn204/H240-Hl211/L73-k0 and H240-Kn205/H240-Hl212/L73-k0 were prepared according to the method of Reference Example 1, by combining H240-Kn204 as one of the H chains and L73-k0 as the L chains with H240-Hl211 as the other H chain, and by combining H240-Kn205 as one of the H chains and L73-k0 as the L chains with H240-Hl212 as the other H chain, and then expressing them. The binding of the prepared variants to FcgRIa, FcgRIIaR, FcgRIIaH, FcgRIIb, FcgRIIIaF, and FcgRIIIaV was measured according to the method of Reference Example 8.
(§2) “fold 2aR”, “fold 2aH”, “fold 2b”, “fold 3aF”, and “fold 3aV” show the relative binding activity of each variant to FcgRIIaR, FcgRIIaH, FcgRIIb, FcgRIIIaF, and FcgRIIIaV, respectively, when the binding activity of H240-Kn033/H240-Hl033/L73-k0, a variant produced by introducing only alterations that promote formation of a heterodimerized antibody into a native IgG1, is defined as 1. Specifically, they are values obtained by dividing the KD value of H240-Kn033/H240-Hl033/L73-k0 for each FcgR by the KD value of an individual variant for each FcgR.
(§3) Analysis of interaction between objective antibody and the FcγR was carried out using Biacore T100 (GE Healthcare), Biacore T200, Biacore A100, and Biacore 4000. HBS-EP+ (GE Healthcare) was used as the running buffer, and the measurement temperature was set to 25° C. Chips produced by immobilizing the antigen peptide by the amine coupling method to a Series S sensor Chip CM5 (GE Healthcare), chips produced by allowing preliminarily biotinylated antigen peptides to interact with and immobilize onto a Series S Sensor Chip SA (certified) (GE Healthcare), chips produced by immobilizing Protein L (ACTIGEN, BioVision) to Series S Sencor Chip CM5 (GE Healthcare), or chips produced by immobilizing Protein A/G (Thermo Scientific) to Series S Sencor Chip CM5 (GE Healthcare) were used. Antibodies of interest were captured onto these chips, and allowed to interact to each FcγR diluted with running buffer.

Question: Which “fold 2aR” value does the source give for B1 here?
Answer: 1.2 fold

Question: For B2, which “fold 2aR” value is on record?
Answer: 0.9 fold

Question: B3 was tested. Which “fold 2aR” value did it give?
Answer: 0.7 fold

Question: With B4 as the binder, how does the “fold 2aR” value read?
Answer: 0.7 fold

Question: With B5 as the binder, how does the “fold 2aR” value read?
Answer: 32.2 fold

Question: B6 was tested. Which “fold 2aR” value did it give?
Answer: 26.4 fold

Question: Which “fold 2aR” value does the source give for B7 here?
Answer: 20 fold

Question: B8 was tested. Which “fold 2aR” value did it give?
Answer: 52.9 fold

Question: For B9, which “fold 2aR” value is on record?
Answer: 29.6 fold

Question: Which “fold 2aR” value does the source give for B10 here?
Answer: 25.5 fold

Question: B11 was tested. Which “fold 2aR” value did it give?
Answer: 26.4 fold

Question: With B12 as the binder, how does the “fold 2aR” value read?
Answer: 11.9 fold

Question: For B13, which “fold 2aR” value is on record?
Answer: 13.7 fold

These binders were tested against T2, FcgRIIaH in the same assay as above.
Protocol: as §1, §2, §3

Question: Which “fold 2aH” value does the source give for B1 here?
Answer: 2.3 fold

Question: Which “fold 2aH” value does the source give for B2 here?
Answer: 2.5 fold

Question: With B3 as the binder, how does the “fold 2aH” value read?
Answer: 1.6 fold

Question: With B4 as the binder, how does the “fold 2aH” value read?
Answer: 2.1 fold

Question: For B5, which “fold 2aH” value is on record?
Answer: 16.3 fold

Question: How did the “fold 2aH” value turn out when B6 was run?
Answer: 6.8 fold

Question: How did the “fold 2aH” value turn out when B7 was run?
Answer: 15.8 fold

Question: With B8 as the binder, how does the “fold 2aH” value read?
Answer: 26 fold

Question: With B9 as the binder, how does the “fold 2aH” value read?
Answer: 15.3 fold

Question: For B10, which “fold 2aH” value is on record?
Answer: 11.8 fold

Question: How did the “fold 2aH” value turn out when B11 was run?
Answer: 10.6 fold

Question: Which “fold 2aH” value does the source give for B12 here?
Answer: 5.5 fold

Question: Which “fold 2aH” value does the source give for B13 here?
Answer: 9.1 fold

What follows are binders tested against T3, FcgRIIb in the same assay as above.
Protocol: as §1, §2, §3

Question: With B1 as the binder, how does the “fold 2b” value read?
Answer: 0.6 fold

Question: How did the “fold 2b” value turn out when B2 was run?
Answer: 0.5 fold

Question: How did the “fold 2b” value turn out when B3 was run?
Answer: 0.5 fold

Question: How did the “fold 2b” value turn out when B4 was run?
Answer: 0.5 fold

Question: B5 was tested. Which “fold 2b” value did it give?
Answer: 20.6 fold

Question: B6 was tested. Which “fold 2b” value did it give?
Answer: 27.5 fold

Question: Which “fold 2b” value does the source give for B7 here?
Answer: 15 fold

Question: How did the “fold 2b” value turn out when B8 was run?
Answer: 36.7 fold

Question: Which “fold 2b” value does the source give for B9 here?
Answer: 20.6 fold

Question: B10 was tested. Which “fold 2b” value did it give?
Answer: 15 fold

Question: With B11 as the binder, how does the “fold 2b” value read?
Answer: 17.4 fold

Question: How did the “fold 2b” value turn out when B12 was run?
Answer: 11.8 fold

Question: Which “fold 2b” value does the source give for B13 here?
Answer: 9.2 fold

Each binder was assayed against T4, FcgRIIIaF (human, UniProt P08637 17-208) in the same assay as above.
T4 construct: extracellular domain; also called FcγRIIIa F; 3aF; not shown: His tag attached to the C terminus
Protocol: as §1, §2, §3

T4 sequence (P08637 17-208): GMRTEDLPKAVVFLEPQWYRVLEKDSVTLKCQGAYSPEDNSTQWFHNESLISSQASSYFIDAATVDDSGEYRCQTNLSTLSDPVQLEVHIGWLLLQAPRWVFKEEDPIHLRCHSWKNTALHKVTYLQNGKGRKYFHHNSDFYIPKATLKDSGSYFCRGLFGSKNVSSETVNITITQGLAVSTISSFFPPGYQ

Question: How did the “fold 3aF” value turn out when B1 was run?
Answer: 138 fold

Question: For B2, which “fold 3aF” value is on record?
Answer: 112 fold

Question: For B3, which “fold 3aF” value is on record?
Answer: 85.3 fold

Question: For B4, which “fold 3aF” value is on record?
Answer: 112 fold

Question: Which “fold 3aF” value does the source give for B5 here?
Answer: 85.3 fold

Question: For B6, which “fold 3aF” value is on record?
Answer: 121 fold

Question: For B7, which “fold 3aF” value is on record?
Answer: 82.9 fold

Question: For B8, which “fold 3aF” value is on record?
Answer: 107 fold

Question: With B9 as the binder, how does the “fold 3aF” value read?
Answer: 82.9 fold

Question: With B10 as the binder, how does the “fold 3aF” value read?
Answer: 107 fold

Question: For B11, which “fold 3aF” value is on record?
Answer: 87.9 fold

Question: B12 was tested. Which “fold 3aF” value did it give?
Answer: 69 fold

Question: How did the “fold 3aF” value turn out when B13 was run?
Answer: 72.5 fold

These binders were tested against T5, FcgRIIIaV (human, UniProt P08637 17-208) in the same assay as above.
T5 construct: extracellular domain; also called FcγRIIIa V; 3aV; not shown: His tag attached to the C terminus
Protocol: as §1, §2, §3

T5 sequence (P08637 17-208 F176V limits assumed): as the sequence (P08637 17-208) above, with F160V counted along it

Question: With B1 as the binder, how does the “fold 3aV” value read?
Answer: 82.8 fold

Question: Which “fold 3aV” value does the source give for B2 here?
Answer: 65.8 fold

Question: Which “fold 3aV” value does the source give for B3 here?
Answer: 60 fold

Question: How did the “fold 3aV” value turn out when B4 was run?
Answer: 70.6 fold

Question: With B5 as the binder, how does the “fold 3aV” value read?
Answer: 104 fold

Question: How did the “fold 3aV” value turn out when B6 was run?
Answer: 126 fold

Question: With B7 as the binder, how does the “fold 3aV” value read?
Answer: 96 fold

Question: With B8 as the binder, how does the “fold 3aV” value read?
Answer: 98 fold

Question: Which “fold 3aV” value does the source give for B9 here?
Answer: 96 fold

Question: For B10, which “fold 3aV” value is on record?
Answer: 102 fold

Question: B11 was tested. Which “fold 3aV” value did it give?
Answer: 88.9 fold

Question: For B12, which “fold 3aV” value is on record?
Answer: 84.2 fold

Question: For B13, which “fold 3aV” value is on record?
Answer: 90.6 fold
